This test addresses T1, His6-tagged AR domain (residues 51–288) of zDHHC17 (human, UniProt Q8IUH5 51-288).
T1 construct: ankyrin-repeat (AR) domain of human zDHHC17 (HIP14), residues 51-288; pET303CT-His plasmid; also called ARzD17-His; ARzD17; source: E. coli BL21(DE3)pLysS, purified; not shown: His6 (after a Leu-Glu linker), C-terminal, kept
T1 sequence (looked up): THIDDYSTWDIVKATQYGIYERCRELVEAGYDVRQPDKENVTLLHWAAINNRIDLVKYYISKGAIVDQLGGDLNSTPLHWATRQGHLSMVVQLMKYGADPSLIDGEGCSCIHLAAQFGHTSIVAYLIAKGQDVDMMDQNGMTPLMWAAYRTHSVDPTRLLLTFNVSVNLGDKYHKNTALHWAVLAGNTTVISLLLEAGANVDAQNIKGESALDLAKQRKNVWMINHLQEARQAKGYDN
Briefly: peptide or protein array; far-Western on an array of 109 SPOT-synthesised 12-mer peptides on cellulose membrane; ARzD17-His (51–288) 500 nM in PBS-T overnight at 4 °C; detected with His6 tag antibody; signals normalised to the highest (1000), values <10 non-binders. The note with it: both partners purified.

B1: PDE4D (Pro-46) zDABM 12-mer peptide (peptide, UniProt Q08499 39-50, looked up)
peptide: HQYPLRQPQFRL
notes: 12-mer of human PDE4D with Pro-46 at position 7 and YP at positions 2-3; source: synthetic peptide, SPOT synthesis on cellulose membrane
Turning to B1, the binding result is reported as “binds”.

B2: SLAIN1 (Pro-541) zDABM 12-mer peptide (peptide, UniProt Q8ND83 534-545, looked up)
peptide: PRSKIAQPVRSF
notes: also called SLAI1; SLAIN motif-containing protein 1; source: synthetic peptide, SPOT synthesis on cellulose membrane
For B2, the binding result is listed as “binds”.

(Values after article PMC5655499, “Peptide array-based screening reveals a large number of proteins interacting with the ankyrin-repeat domain of the zDHHC17 S-acyltransferase” (The Journal of Biological Chemistry, 2017).)
